One substance from patent US20210347858A1 can be followed below.

A value given as a limit tells only on which side of the number the result lay.

The test deals with human ACE2 receptor protein (hACE2) pre-coated on the plate of the GenScript sVNT C-Pass Kit (human) (UniProt Q9BYF1). The test is described as follows: modified GenScript sVNT (FIG. 28), competitor HRP-RBD.
UniProt Q9BYF1, sequence (Q9BYF1 18-740 limits assumed): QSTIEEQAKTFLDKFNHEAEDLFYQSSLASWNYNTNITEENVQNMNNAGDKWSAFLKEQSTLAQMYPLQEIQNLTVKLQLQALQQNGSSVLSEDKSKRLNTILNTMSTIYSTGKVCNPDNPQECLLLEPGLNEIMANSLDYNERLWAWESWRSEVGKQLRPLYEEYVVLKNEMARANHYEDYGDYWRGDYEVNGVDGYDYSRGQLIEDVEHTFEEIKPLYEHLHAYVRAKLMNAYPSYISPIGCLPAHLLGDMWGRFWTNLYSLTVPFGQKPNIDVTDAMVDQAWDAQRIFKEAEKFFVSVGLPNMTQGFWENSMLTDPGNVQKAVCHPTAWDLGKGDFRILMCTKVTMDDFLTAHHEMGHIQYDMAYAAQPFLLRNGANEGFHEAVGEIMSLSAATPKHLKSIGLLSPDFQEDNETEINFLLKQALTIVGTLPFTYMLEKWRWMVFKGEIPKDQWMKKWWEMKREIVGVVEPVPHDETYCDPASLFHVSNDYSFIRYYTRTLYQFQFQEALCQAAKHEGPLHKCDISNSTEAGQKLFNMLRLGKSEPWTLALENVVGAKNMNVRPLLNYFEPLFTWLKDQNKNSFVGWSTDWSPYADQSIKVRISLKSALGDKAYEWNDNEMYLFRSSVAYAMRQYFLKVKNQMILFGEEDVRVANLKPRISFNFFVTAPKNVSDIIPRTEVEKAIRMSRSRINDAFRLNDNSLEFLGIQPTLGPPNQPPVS

In the case of “Serum from uninoculated (non-targeted) chickens (antibody)”, the percent inhibition of RBD:ACE2 binding is less than 5%.
